Measurements published in patent US6794159.

Biological target: Alanyl-human growth hormone

| Protein | % cleavage (batch mode, 4-6° C., 16 hrs) [%] | % cleavage (batch mode, 4-6° C., 54 hrs) [%] | % cleavage (batch mode, 4-6° C., 89 hrs) [%] | % cleavage (batch mode, ambient, 16 hrs) [%] | % cleavage (batch mode, ambient, 54 hrs) [%] | % cleavage (batch mode, ambient, 89 hrs) [%] | % cleavage (recirculation, 28° C., 2.92 hrs, 1.06 passes, RP-HPLC) [%] | % cleavage (recirculation, 28° C., 5.73 hrs, 2.08 passes, tryptic map) [%] | % cleavage (recirculation, 28° C., 15.57 hrs, 5.66 passes, tryptic map) [%] | % cleavage (recirculation, 28° C., 17.73 hrs, 6.45 passes, tryptic map) [%] | % cleavage (recirculation, 28° C., 20.4 hrs, 7.42 passes, tryptic map) [%] | % cleavage (recirculation, 28° C., 23.4 hrs, 8.8 passes, tryptic map) [%] | % cleavage (recirculation, 28° C., 24.4 hrs, 8.87 passes, tryptic map) [%] | % cleavage (recirculation, 28° C., 39.7 hrs, 14.44 passes, tryptic map) [%] | removal of Ala from Ala-hGH by AAP in free solution (Ala-hGH 3 mg/ml; AAP 2.0, 3.0, 4.0 units/ml; room temperature; ES/MS) | rate of Ala-hGH cleavage, batch and recirculating column modes, compared with Zn-AAP (RP-HPLC) |
| --- | --- | --- | --- | --- | --- | --- | --- | --- | --- | --- | --- | --- | --- | --- | --- | --- |
| Aeromonas aminopeptidase (protein) MPPITQQATVTAWLPQVDASQITGTISSLESFTNRFYTTTSGAQASDWIASEWQALSASLPNASVKQVSHSGYNQKSVVMTITGSEAPDEWIVIGGHLDSTIGSHTNEQSVAPGADDDASGIAAVTEVIRVLSENNFQPKRSIAFMAYAAEEVGLRGSQDLANQYKSEGKNVVSALQLDMTNYKGSAQDVVFITDYTDSNFTQYLTQLMDEYLPSLTYGFDTCGYACSDHASWHNAGYPAAMPFESKFNDYNPRIHTTQDTLANSDPTGSHAKKFTQLGLAYAIEMGSATGDTPTPGNQ | 48 | 65 | 75 | 82 | > 97 | > 97 | > 93 | > 96.1 | > 98.6 | > 98.6 | > 98.6 | > 98.8 | > 98.8 | > 99.2 | Most of the reactions for the three highest concentrations of AAP were complete by 6 hours | – |
| Cu2+-substituted Aeromonas aminopeptidase (protein) MPPITQQATVTAWLPQVDASQITGTISSLESFTNRFYTTTSGAQASDWIASEWQALSASLPNASVKQVSHSGYNQKSVVMTITGSEAPDEWIVIGGHLDSTIGSHTNEQSVAPGADDDASGIAAVTEVIRVLSENNFQPKRSIAFMAYAAEEVGLRGSQDLANQYKSEGKNVVSALQLDMTNYKGSAQDVVFITDYTDSNFTQYLTQLMDEYLPSLTYGFDTCGYACSDHASWHNAGYPAAMPFESKFNDYNPRIHTTQDTLANSDPTGSHAKKFTQLGLAYAIEMGSATGDTPTPGNQ | – | – | – | – | – | – | – | – | – | – | – | – | – | – | – | Cu^2+-substituted AAP was the most active against Ala-hGH |
